Drawing on publication PMC4255524, this text covers Kd and stoichiometry N for 2 molecules.

Assay [1] deals with N-terminal domain of Chlamydomonas reinhardtii BBS1 (residues 1–425) (Chlamydomonas reinhardtii). Kind of assay: ITC. (In general: ITC needs no label: the signal is the heat of the interaction.)
For assay [2], the target named is N-terminal domain of Homo sapiens BBS1 with the patient mutation E234K (Homo sapiens) (UniProt Q8NFJ9). Briefly: ITC.

Usually Kd stands for the concentration at which binding is half-saturated. As usually defined, the stoichiometry N is the number of molecules, sites or subunits per partner or assembly.

Sequence of UniProt Q8NFJ9 (Q8NFJ9 1-417 E234K): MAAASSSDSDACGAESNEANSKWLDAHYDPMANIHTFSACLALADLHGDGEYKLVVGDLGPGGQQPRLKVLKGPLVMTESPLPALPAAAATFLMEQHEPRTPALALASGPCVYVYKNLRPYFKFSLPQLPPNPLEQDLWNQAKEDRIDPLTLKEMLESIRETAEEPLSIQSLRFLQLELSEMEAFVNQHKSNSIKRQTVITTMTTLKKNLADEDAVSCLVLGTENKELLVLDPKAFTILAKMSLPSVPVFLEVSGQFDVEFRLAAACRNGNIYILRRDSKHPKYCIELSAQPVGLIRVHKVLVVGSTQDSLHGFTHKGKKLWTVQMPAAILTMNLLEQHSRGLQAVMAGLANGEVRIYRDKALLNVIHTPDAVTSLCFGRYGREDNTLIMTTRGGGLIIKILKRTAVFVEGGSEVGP

For “Chlamydomonas reinhardtii ARL6ΔN (residues 1–15 deleted), GTP-bound (domain or fragment)”, in assay [1], the Kd turned out to be 350 nM and the stoichiometry N is 1.

B1: untagged Homo sapiens ARL6 Q73L ΔN (domain or fragment)
chain: KEVHVLCLGLDNSGKTTIINKLKPSNAQSQNILPTIGFSIEKFKSSSLSFTVFDMSGLGRYRNLWEHYYKEGQAIIFVIDSSDRLRMVVAKEELDTLLNHPDIKHRRIPILFFANKMDLRDAVTSVKVSQLLCLENIKDKPWHICASDAIKGEGLQEGVDWLQDQIQTVKT
In assay [2], B1 showed a Kd of 350 nM.
